Here are results for four molecules from PMC6940986, “Structural Insights into the Intracellular Region of the Human Magnesium Transport Mediator CNNM4” (International Journal of Molecular Sciences, 2019).

To fix the notation:
B1: CNNM4_(BAT-cNMP-Ctail) (complete intracellular region of human CNNM4, residues 356-775) (domain or fragment, UniProt Q6P4Q7 356-775, looked up)
chain: KEELNMIQGALELRTKTVEDIMTQLQDCFMIRSDAILDFNTMSEIMESGYTRIPVFEDEQSNIVDILYVKDLAFVDPDDCTPLKTITRFYNHPVHFVFHDTKLDAMLEEFKKGKSHLAIVQKVNNEGEGDPFYEVLGLVTLEDVIEEIIKSEILDESDMYTDNRSRKRVSEKNKRDFSAFKDADNELKVKISPQLLLAAHRFLATEVSQFSPSLISEKILLRLLKYPDVIQELKFDEHNKYYARHYLYTRNKPADYFILILQGKVEVEAGKENMKFETGAFSYYGTMALTSVPSDRSPAHPTPLSRSASLSYPDRTDVSTAATLAGSSNQFGSSVLGQYISDFSVRALVDLQYIKITRQQYQNGLLASRMENSPQFPIDGCTTHMENLAEKSELPVVDETTTLLNERNSLLHKASHENAI
notes: CNNM4, human, UniProtKB/Swiss-Prot Q6P4Q7, residues 356-775 (Bateman module, linker, cNMP domain and C-terminal tail); Cloned into pHIS-Parallel2; also called hCNNM4_(BAT-cNMP-Ctail); full intracellular region; source: E. coli BL21 (DE3), purified (HisTrap, TEV, second Ni-NTA, Superdex 75); not shown: His6, N-terminal, cleaved

Series [1] concerns the molecule itself. Nature of the series: SEC-MALS; Superdex 200 10/300 GL, 25 C, 20 mM HEPES pH 7.4, 200 mM NaCl, 1 mM TCEP; 100 uL injected at 1 and 10 g/L; monomer to dimer. On the technique in general: In gel filtration, larger molecules generally elute earlier.
The target of series [2] is B1. Nature of the series: SEC-SAXS; KW-403 size-exclusion column online, 20 C, 20 mM HEPES pH 7.4, 200 mM NaCl, 1 mM DTT; samples about 5 mg/mL; CNNM4_(BAT-cNMP-Ctail) and its complex with PRL-1 each without and with 5 mM MgATP; oligomeric state from Porod volume, Rg, Dmax. To be noted: both partners purified.

As usually defined, the stoichiometry N is the number of molecules, sites or subunits per partner or assembly. As for B1, the “stoichiometry N” value in series [1] amounted to 2.

B2: CNNM4_(BAT-cNMP-Ctail) F631A mutant (domain or fragment, human, UniProt Q6P4Q7 356-775, looked up)
chain: KEELNMIQGALELRTKTVEDIMTQLQDCFMIRSDAILDFNTMSEIMESGYTRIPVFEDEQSNIVDILYVKDLAFVDPDDCTPLKTITRFYNHPVHFVFHDTKLDAMLEEFKKGKSHLAIVQKVNNEGEGDPFYEVLGLVTLEDVIEEIIKSEILDESDMYTDNRSRKRVSEKNKRDFSAFKDADNELKVKISPQLLLAAHRFLATEVSQFSPSLISEKILLRLLKYPDVIQELKFDEHNKYYARHYLYTRNKPADYFILILQGKVEVEAGKENMKAETGAFSYYGTMALTSVPSDRSPAHPTPLSRSASLSYPDRTDVSTAATLAGSSNQFGSSVLGQYISDFSVRALVDLQYIKITRQQYQNGLLASRMENSPQFPIDGCTTHMENLAEKSELPVVDETTTLLNERNSLLHKASHENAI
notes: CNNM4, human, UniProtKB/Swiss-Prot Q6P4Q7, residues 356-775 with F631A; also called F631A mutant of CNNM4_(BAT-cNMP-Ctail)
For B2, the binding result in series [1] is “binds”.

B3: CNNM4_(cNMP) (human CNNM4 cyclic nucleotide monophosphate binding-like domain, residues 545-730) (domain or fragment, UniProt Q6P4Q7 545-730, looked up)
chain: KISPQLLLAAHRFLATEVSQFSPSLISEKILLRLLKYPDVIQELKFDEHNKYYARHYLYTRNKPADYFILILQGKVEVEAGKENMKFETGAFSYYGTMALTSVPSDRSPAHPTPLSRSASLSYPDRTDVSTAATLAGSSNQFGSSVLGQYISDFSVRALVDLQYIKITRQQYQNGLLASRMENSPQ
modifications: SeMet labeled in the crystals
notes: CNNM4, human, UniProtKB/Swiss-Prot Q6P4Q7, residues 545-730 (cNMP domain only, without the C-terminal tail); Cloned into pHIS-Parallel2; In solution a concentration dependent mixture of monomers and dimers; also called hCNNM4_(cNMP); CNNM4_(545-730); source: E. coli BL21 (DE3), purified (HisTrap, TEV, second Ni-NTA, Superdex 75); SeMet derivative from E. coli B834 (DE3) for the crystals; not …
Consider B3, for which, in series [1], the “stoichiometry N” value was 2.

B4: PRL-1 (phosphatase of regenerating liver 1) (enzyme)
chain: MARMNRPAPVEVTYKNMRFLITHNPTNATLNKFIEELKKYGVTTIVRVCEATYDTTLVEKEGIHVLDWPFDDGAPPSNQIVDDWLSLVKIKFREEPGCCIAVHCVAGLGRAPVLVALALIEGGMKYEDAVQFIRQKRRGAFNSKQLLYLEKYRPKMRLRFKDSNGHRNNCCIQ
notes: PRL-1, phosphatase of the regenerating liver; The methods give no source or construct for PRL-1
As for B4, the “stoichiometry N” value in series [2] is 2 PRL-1 molecules per CNNM4_(BAT-cNMP-Ctail) dimer.
